biological target: T1, CD3ε homodimer protein (human, UniProt P07766 23-126, limits assumed); assay: SPR Biacore T200, CD3ε homodimer on chip;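 note: Light-chain single-residue variant antibodies injected over amine-coupled CD3ε homodimer on a CM4 chip at 25 °C, bound amount divided by that of the GLS3000-containing antibody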
T1 construct: also called CD3 (CD3ε)
T1 sequence (P07766 23-126 limits assumed): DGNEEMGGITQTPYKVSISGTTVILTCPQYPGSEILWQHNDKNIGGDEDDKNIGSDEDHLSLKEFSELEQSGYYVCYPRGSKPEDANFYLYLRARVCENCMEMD

Row | Binder | ratio of amount bound vs unaltered GLS3000
1 | GLS3000 N30Y one-arm antibody (antibody, human IgG1, kappa, L234A L235A, N297A, name in Kabat numbering) heavy: QVQLVESGGGVVQPGRSLRLSCAASGFTFSNAWMHWVRQAPGKGLEWVAQIKAKSNNYATYYAESVKGRFTISRDDSKNSLYLQMNSLKTEDTAVYYCRYVHYGAYYGVDAWGQGTTVTVSSASTKGPSVFPLAPSSKSTSGGTAALGCLVKDYFPEPVTVSWNSGALTSGVHTFPAVLQSSGLYSLSSVVTVPSSSLGTQTYICNVNHKPSNTKVDKKVEPKSCDKTHTCPPCPAPEAAGGPSVFLFPPKPKDTLMISRTPEVTCVVVDVSHEDPEVKFNWYVDGVEVHNAKTKPREEQYASTYRVVSVLTVLHQDWLNGKEYKCKVSNKALPAPIEKTISKAKGQPREPQVYTLPPSRCELTKNQVSLSCAVKGFYPSDIAVEWESNGQPENNYKTTPPVLDSDGSFFLVSKLTVDKSRWQQGNVFSCSVMHEALHNHYTQKSLSLSPDYKDDDDK EPKSSDKTHTCPPCPAPELLGGPSVFLFPPKPKDTLMISRTPEVTCVVVDVSHEDPEVKFNWYVDGVEVHNAKTKPREEQYNSTYRVVSVLTVLHQDWLNGKEYKCKVSNKALPAPIEKTISKAKGQPREPQVCTLPPSRDELTKNQVSLWCLVKGFYPSDIAVEWESNGQPENNYKTTPPVLDSDGSFFLYSKLTVDKSRWQQGNVFSCSVMHEALHNRYTQKSLSLSP light: DIVMTQSPLSLPVTPGEPASISCRSSQSLVHSNRYTYLHWYQQKPGQAPRLLIYKVSNRFSGVPDRFSGSGSGTDFTLKISRVEAEDVGVYYCGQGTQVPYTFGQGTKLEIKRTVAAPSVFIFPPSDEQLKSGTASVVCLLNNFYPREAKVQWKVDNALQSGNSQESVTEQDSKDSTYSLSSTLTLSKADYEKHKVYACEVTHQGLSSPVTKSFNRGEC | 1.04
2 | GLS3000 N53D one-arm antibody (antibody, human IgG1, kappa, L234A L235A, N297A, name in Kabat numbering) heavy: QVQLVESGGGVVQPGRSLRLSCAASGFTFSNAWMHWVRQAPGKGLEWVAQIKAKSNNYATYYAESVKGRFTISRDDSKNSLYLQMNSLKTEDTAVYYCRYVHYGAYYGVDAWGQGTTVTVSSASTKGPSVFPLAPSSKSTSGGTAALGCLVKDYFPEPVTVSWNSGALTSGVHTFPAVLQSSGLYSLSSVVTVPSSSLGTQTYICNVNHKPSNTKVDKKVEPKSCDKTHTCPPCPAPEAAGGPSVFLFPPKPKDTLMISRTPEVTCVVVDVSHEDPEVKFNWYVDGVEVHNAKTKPREEQYASTYRVVSVLTVLHQDWLNGKEYKCKVSNKALPAPIEKTISKAKGQPREPQVYTLPPSRCELTKNQVSLSCAVKGFYPSDIAVEWESNGQPENNYKTTPPVLDSDGSFFLVSKLTVDKSRWQQGNVFSCSVMHEALHNHYTQKSLSLSPDYKDDDDK EPKSSDKTHTCPPCPAPELLGGPSVFLFPPKPKDTLMISRTPEVTCVVVDVSHEDPEVKFNWYVDGVEVHNAKTKPREEQYNSTYRVVSVLTVLHQDWLNGKEYKCKVSNKALPAPIEKTISKAKGQPREPQVCTLPPSRDELTKNQVSLWCLVKGFYPSDIAVEWESNGQPENNYKTTPPVLDSDGSFFLYSKLTVDKSRWQQGNVFSCSVMHEALHNRYTQKSLSLSP light: DIVMTQSPLSLPVTPGEPASISCRSSQSLVHSNRNTYLHWYQQKPGQAPRLLIYKVSDRFSGVPDRFSGSGSGTDFTLKISRVEAEDVGVYYCGQGTQVPYTFGQGTKLEIKRTVAAPSVFIFPPSDEQLKSGTASVVCLLNNFYPREAKVQWKVDNALQSGNSQESVTEQDSKDSTYSLSSTLTLSKADYEKHKVYACEVTHQGLSSPVTKSFNRGEC | 0.34
3 | GLS3000 N53A one-arm antibody (antibody, human IgG1, kappa, L234A L235A, N297A, name in Kabat numbering) heavy: QVQLVESGGGVVQPGRSLRLSCAASGFTFSNAWMHWVRQAPGKGLEWVAQIKAKSNNYATYYAESVKGRFTISRDDSKNSLYLQMNSLKTEDTAVYYCRYVHYGAYYGVDAWGQGTTVTVSSASTKGPSVFPLAPSSKSTSGGTAALGCLVKDYFPEPVTVSWNSGALTSGVHTFPAVLQSSGLYSLSSVVTVPSSSLGTQTYICNVNHKPSNTKVDKKVEPKSCDKTHTCPPCPAPEAAGGPSVFLFPPKPKDTLMISRTPEVTCVVVDVSHEDPEVKFNWYVDGVEVHNAKTKPREEQYASTYRVVSVLTVLHQDWLNGKEYKCKVSNKALPAPIEKTISKAKGQPREPQVYTLPPSRCELTKNQVSLSCAVKGFYPSDIAVEWESNGQPENNYKTTPPVLDSDGSFFLVSKLTVDKSRWQQGNVFSCSVMHEALHNHYTQKSLSLSPDYKDDDDK EPKSSDKTHTCPPCPAPELLGGPSVFLFPPKPKDTLMISRTPEVTCVVVDVSHEDPEVKFNWYVDGVEVHNAKTKPREEQYNSTYRVVSVLTVLHQDWLNGKEYKCKVSNKALPAPIEKTISKAKGQPREPQVCTLPPSRDELTKNQVSLWCLVKGFYPSDIAVEWESNGQPENNYKTTPPVLDSDGSFFLYSKLTVDKSRWQQGNVFSCSVMHEALHNRYTQKSLSLSP light: DIVMTQSPLSLPVTPGEPASISCRSSQSLVHSNRNTYLHWYQQKPGQAPRLLIYKVSARFSGVPDRFSGSGSGTDFTLKISRVEAEDVGVYYCGQGTQVPYTFGQGTKLEIKRTVAAPSVFIFPPSDEQLKSGTASVVCLLNNFYPREAKVQWKVDNALQSGNSQESVTEQDSKDSTYSLSSTLTLSKADYEKHKVYACEVTHQGLSSPVTKSFNRGEC | 0.61

The next lines start with the values.

Row | ratio of amount bound vs unaltered GLS3000 | Binder
4 | 0.54 | GLS3000 N53E one-arm antibody (antibody, human IgG1, kappa, L234A L235A, N297A, name in Kabat numbering) heavy: QVQLVESGGGVVQPGRSLRLSCAASGFTFSNAWMHWVRQAPGKGLEWVAQIKAKSNNYATYYAESVKGRFTISRDDSKNSLYLQMNSLKTEDTAVYYCRYVHYGAYYGVDAWGQGTTVTVSSASTKGPSVFPLAPSSKSTSGGTAALGCLVKDYFPEPVTVSWNSGALTSGVHTFPAVLQSSGLYSLSSVVTVPSSSLGTQTYICNVNHKPSNTKVDKKVEPKSCDKTHTCPPCPAPEAAGGPSVFLFPPKPKDTLMISRTPEVTCVVVDVSHEDPEVKFNWYVDGVEVHNAKTKPREEQYASTYRVVSVLTVLHQDWLNGKEYKCKVSNKALPAPIEKTISKAKGQPREPQVYTLPPSRCELTKNQVSLSCAVKGFYPSDIAVEWESNGQPENNYKTTPPVLDSDGSFFLVSKLTVDKSRWQQGNVFSCSVMHEALHNHYTQKSLSLSPDYKDDDDK EPKSSDKTHTCPPCPAPELLGGPSVFLFPPKPKDTLMISRTPEVTCVVVDVSHEDPEVKFNWYVDGVEVHNAKTKPREEQYNSTYRVVSVLTVLHQDWLNGKEYKCKVSNKALPAPIEKTISKAKGQPREPQVCTLPPSRDELTKNQVSLWCLVKGFYPSDIAVEWESNGQPENNYKTTPPVLDSDGSFFLYSKLTVDKSRWQQGNVFSCSVMHEALHNRYTQKSLSLSP light: DIVMTQSPLSLPVTPGEPASISCRSSQSLVHSNRNTYLHWYQQKPGQAPRLLIYKVSERFSGVPDRFSGSGSGTDFTLKISRVEAEDVGVYYCGQGTQVPYTFGQGTKLEIKRTVAAPSVFIFPPSDEQLKSGTASVVCLLNNFYPREAKVQWKVDNALQSGNSQESVTEQDSKDSTYSLSSTLTLSKADYEKHKVYACEVTHQGLSSPVTKSFNRGEC
5 | 0.69 | GLS3000 N53F one-arm antibody (antibody, human IgG1, kappa, L234A L235A, N297A, name in Kabat numbering) heavy: QVQLVESGGGVVQPGRSLRLSCAASGFTFSNAWMHWVRQAPGKGLEWVAQIKAKSNNYATYYAESVKGRFTISRDDSKNSLYLQMNSLKTEDTAVYYCRYVHYGAYYGVDAWGQGTTVTVSSASTKGPSVFPLAPSSKSTSGGTAALGCLVKDYFPEPVTVSWNSGALTSGVHTFPAVLQSSGLYSLSSVVTVPSSSLGTQTYICNVNHKPSNTKVDKKVEPKSCDKTHTCPPCPAPEAAGGPSVFLFPPKPKDTLMISRTPEVTCVVVDVSHEDPEVKFNWYVDGVEVHNAKTKPREEQYASTYRVVSVLTVLHQDWLNGKEYKCKVSNKALPAPIEKTISKAKGQPREPQVYTLPPSRCELTKNQVSLSCAVKGFYPSDIAVEWESNGQPENNYKTTPPVLDSDGSFFLVSKLTVDKSRWQQGNVFSCSVMHEALHNHYTQKSLSLSPDYKDDDDK EPKSSDKTHTCPPCPAPELLGGPSVFLFPPKPKDTLMISRTPEVTCVVVDVSHEDPEVKFNWYVDGVEVHNAKTKPREEQYNSTYRVVSVLTVLHQDWLNGKEYKCKVSNKALPAPIEKTISKAKGQPREPQVCTLPPSRDELTKNQVSLWCLVKGFYPSDIAVEWESNGQPENNYKTTPPVLDSDGSFFLYSKLTVDKSRWQQGNVFSCSVMHEALHNRYTQKSLSLSP light: DIVMTQSPLSLPVTPGEPASISCRSSQSLVHSNRNTYLHWYQQKPGQAPRLLIYKVSFRFSGVPDRFSGSGSGTDFTLKISRVEAEDVGVYYCGQGTQVPYTFGQGTKLEIKRTVAAPSVFIFPPSDEQLKSGTASVVCLLNNFYPREAKVQWKVDNALQSGNSQESVTEQDSKDSTYSLSSTLTLSKADYEKHKVYACEVTHQGLSSPVTKSFNRGEC
6 | 0.76 | GLS3000 N53G one-arm antibody (antibody, human IgG1, kappa, L234A L235A, N297A, name in Kabat numbering) heavy: QVQLVESGGGVVQPGRSLRLSCAASGFTFSNAWMHWVRQAPGKGLEWVAQIKAKSNNYATYYAESVKGRFTISRDDSKNSLYLQMNSLKTEDTAVYYCRYVHYGAYYGVDAWGQGTTVTVSSASTKGPSVFPLAPSSKSTSGGTAALGCLVKDYFPEPVTVSWNSGALTSGVHTFPAVLQSSGLYSLSSVVTVPSSSLGTQTYICNVNHKPSNTKVDKKVEPKSCDKTHTCPPCPAPEAAGGPSVFLFPPKPKDTLMISRTPEVTCVVVDVSHEDPEVKFNWYVDGVEVHNAKTKPREEQYASTYRVVSVLTVLHQDWLNGKEYKCKVSNKALPAPIEKTISKAKGQPREPQVYTLPPSRCELTKNQVSLSCAVKGFYPSDIAVEWESNGQPENNYKTTPPVLDSDGSFFLVSKLTVDKSRWQQGNVFSCSVMHEALHNHYTQKSLSLSPDYKDDDDK EPKSSDKTHTCPPCPAPELLGGPSVFLFPPKPKDTLMISRTPEVTCVVVDVSHEDPEVKFNWYVDGVEVHNAKTKPREEQYNSTYRVVSVLTVLHQDWLNGKEYKCKVSNKALPAPIEKTISKAKGQPREPQVCTLPPSRDELTKNQVSLWCLVKGFYPSDIAVEWESNGQPENNYKTTPPVLDSDGSFFLYSKLTVDKSRWQQGNVFSCSVMHEALHNRYTQKSLSLSP light: DIVMTQSPLSLPVTPGEPASISCRSSQSLVHSNRNTYLHWYQQKPGQAPRLLIYKVSGRFSGVPDRFSGSGSGTDFTLKISRVEAEDVGVYYCGQGTQVPYTFGQGTKLEIKRTVAAPSVFIFPPSDEQLKSGTASVVCLLNNFYPREAKVQWKVDNALQSGNSQESVTEQDSKDSTYSLSSTLTLSKADYEKHKVYACEVTHQGLSSPVTKSFNRGEC
